Changes are numbered by the printed parent chain.
B1: cr768 (nucleic acid)
guide: GTTTAAGAGCTAAGCTGGAAACAGCATAGCAAGTTTAAATAAGGCTAGTCCGTTATCAACTTGAAAAAGTGGCACCGAGCCGGTGCT
modifications: listed as DNA, chemistry not fully specified
B2: cr236 (nucleic acid)
guide: B1 guide with G24A, C80T
modifications: listed as DNA, chemistry not fully specified
B3: cr260 (nucleic acid)
guide: B1 guide with T53A, C80T
modifications: listed as DNA, chemistry not fully specified
B4: cr153 (nucleic acid)
guide: B1 guide with C60A, T61A, A68T, G69T, C80T
modifications: listed as DNA, chemistry not fully specified
B5: cr991 (nucleic acid)
guide: B1 guide with T53A, A65C, C80T
modifications: listed as DNA, chemistry not fully specified
B6: cr105 (nucleic acid)
guide: B1 guide with T46C, A65C, C80T
modifications: listed as DNA, chemistry not fully specified
B7: cr692 (nucleic acid)
guide: B1 guide with G17A, C80T
modifications: listed as DNA, chemistry not fully specified
B8: cr184 (nucleic acid)
guide: B1 guide with T53G, A64G, C80T
modifications: listed as DNA, chemistry not fully specified
B9: cr216 (nucleic acid)
guide: B1 guide with G44A, C50T, C80T
modifications: listed as DNA, chemistry not fully specified
B10: cr643 (nucleic acid)
guide: B1 guide with G44A, C50T, A59G, T70C, C75T, C80T, G83A
modifications: listed as DNA, chemistry not fully specified
B11: cr891 (nucleic acid)
guide: B1 guide with G44A, C50T, C73T, C80T, G85A
modifications: listed as DNA, chemistry not fully specified
B12: cr521 (nucleic acid)
guide: B1 guide with A47G, A78T, C80T
modifications: listed as DNA, chemistry not fully specified
B13: cr865 (nucleic acid)
guide: B1 guide with A59T, C80T
modifications: listed as DNA, chemistry not fully specified
B14: cr788 (nucleic acid)
guide: B1 guide with G29T, C80T
modifications: listed as DNA, chemistry not fully specified
B15: cr899 (nucleic acid)
guide: B1 guide with G44A, C50T, A59G, T70C, C73T, C80T, G85A
modifications: listed as DNA, chemistry not fully specified
B16: cr022 (nucleic acid)
guide: B1 guide with A8T, C80T
modifications: listed as DNA, chemistry not fully specified
B17: cr829 (nucleic acid)
guide: B1 guide with G29C, C80T
modifications: listed as DNA, chemistry not fully specified
B18: cr676 (nucleic acid)
guide: B1 guide with A64G, G71T, C80T
modifications: listed as DNA, chemistry not fully specified
B19: cr914 (nucleic acid)
guide: B1 guide with G44A, C50T, C73G, C80T, G85C
modifications: listed as DNA, chemistry not fully specified
B20: cr688 (nucleic acid)
guide: B1 guide with A65T
modifications: listed as DNA, chemistry not fully specified
B21: cr878 (nucleic acid)
guide: B1 guide with C45T, G48A, C60T, G69A, C75T, C80T, G83A
modifications: listed as DNA, chemistry not fully specified
B22: cr943 (nucleic acid)
guide: B1 guide with G72A, C75A, C80T, G83T, C86T
modifications: listed as DNA, chemistry not fully specified
B23: cr495 (nucleic acid)
guide: B1 guide with C80A
modifications: listed as DNA, chemistry not fully specified
B24: cr717 (nucleic acid)
guide: B1 guide with C45T, G48A, A59G, T70C, C80T
modifications: listed as DNA, chemistry not fully specified
B25: cr169 (nucleic acid)
guide: B1 guide with A65G
modifications: listed as DNA, chemistry not fully specified
B26: cr960 (nucleic acid)
guide: B1 guide with A59T, C60A, G69T, T70A, C80T
modifications: listed as DNA, chemistry not fully specified
B27: cr319 (nucleic acid)
guide: B1 guide with A42G, A65G, C80T
modifications: listed as DNA, chemistry not fully specified
B28: cr370 (nucleic acid)
guide: B1 guide with A65G, C76G, C80T, G82C
modifications: listed as DNA, chemistry not fully specified
B29: cr647 (nucleic acid)
guide: B1 guide with C25G, C80T
modifications: listed as DNA, chemistry not fully specified
B30: cr785 (nucleic acid)
guide: B1 guide with T46G, C80T, T87G
modifications: listed as DNA, chemistry not fully specified

Test system: K562 CRISPRi cells
Assay: Constant region variant library pooled growth screen, K562
Format: cell-based, human
Details: sgRNA constant region variants; activity relative to the original, un-modified constant region cr995
In short: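 Relative activity expresses each targeting sequence:constant region pair's phenotype over that of the unmodified constant region. Pooled growth screen ran in K562 CRISPRi cells in duplicate spinner-flask replicates, with puromycin selection and 4–8 days' growth at >2000× coverage; library paired variants with 36 targeting sequences.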

Molecule | Mean relative activity
B1 | 0.8788
B2 | 0.8745
B3 | 0.874
B4 | 0.8735
B5 | 0.8694
B6 | 0.8672
B7 | 0.8665
B8 | 0.8653
B9 | 0.8652
B10 | 0.865
B11 | 0.8641
B12 | 0.8638
B13 | 0.8637
B14 | 0.8617
B15 | 0.8583
B16 | 1.058
B17 | 0.8571
B18 | 0.8506
B19 | 0.8494
B20 | 0.848
B21 | 0.847
B22 | 0.8464
B23 | 0.8462
B24 | 1.056
B25 | 0.8454
B26 | 0.8446
B27 | 0.8419
B28 | 0.8417
B29 | 0.8408
B30 | 0.8378
